Assay results reported in patent US20090081195A1, “Inhibitors of Ste20-like Kinase (SLK) and Methods of Modulating Cell Cycle Progression and Cell Motility” (OTTAWA HEALTH RESEARCH INSTITUTE, priority 2005, published 2009).

Key:
α-tubulin = test: GST pulldown binding to α-tubulin; settings: in vitro
Excerpt: Co-localization of Rac1 (d), Paxillin (e) and Ldb1 (f) with SLK (a-c) in membrane ruffles of migrating fibroblasts on fibronectin (arrowhead). Note the absence of SLK in mature adhesions identified by Paxillin staining (e; arrow). […] (m) Ldb2 binds α-tubulin.

[1] = biological target: T1, GST-tagged recombinant SLK (Mus musculus, UniProt O54988); test: Recombinant SLK kinase assay on histone H1; format: biochemical, murine; settings: recombinant His-tagged Ldb added to GST-SLK, substrate histone H1
T1 construct: GST (N); made in house; host or cells: bacteria (IPTG-induced, pGEX vector)
T1 sequence (O54988 1-1202 isoform O54988-2): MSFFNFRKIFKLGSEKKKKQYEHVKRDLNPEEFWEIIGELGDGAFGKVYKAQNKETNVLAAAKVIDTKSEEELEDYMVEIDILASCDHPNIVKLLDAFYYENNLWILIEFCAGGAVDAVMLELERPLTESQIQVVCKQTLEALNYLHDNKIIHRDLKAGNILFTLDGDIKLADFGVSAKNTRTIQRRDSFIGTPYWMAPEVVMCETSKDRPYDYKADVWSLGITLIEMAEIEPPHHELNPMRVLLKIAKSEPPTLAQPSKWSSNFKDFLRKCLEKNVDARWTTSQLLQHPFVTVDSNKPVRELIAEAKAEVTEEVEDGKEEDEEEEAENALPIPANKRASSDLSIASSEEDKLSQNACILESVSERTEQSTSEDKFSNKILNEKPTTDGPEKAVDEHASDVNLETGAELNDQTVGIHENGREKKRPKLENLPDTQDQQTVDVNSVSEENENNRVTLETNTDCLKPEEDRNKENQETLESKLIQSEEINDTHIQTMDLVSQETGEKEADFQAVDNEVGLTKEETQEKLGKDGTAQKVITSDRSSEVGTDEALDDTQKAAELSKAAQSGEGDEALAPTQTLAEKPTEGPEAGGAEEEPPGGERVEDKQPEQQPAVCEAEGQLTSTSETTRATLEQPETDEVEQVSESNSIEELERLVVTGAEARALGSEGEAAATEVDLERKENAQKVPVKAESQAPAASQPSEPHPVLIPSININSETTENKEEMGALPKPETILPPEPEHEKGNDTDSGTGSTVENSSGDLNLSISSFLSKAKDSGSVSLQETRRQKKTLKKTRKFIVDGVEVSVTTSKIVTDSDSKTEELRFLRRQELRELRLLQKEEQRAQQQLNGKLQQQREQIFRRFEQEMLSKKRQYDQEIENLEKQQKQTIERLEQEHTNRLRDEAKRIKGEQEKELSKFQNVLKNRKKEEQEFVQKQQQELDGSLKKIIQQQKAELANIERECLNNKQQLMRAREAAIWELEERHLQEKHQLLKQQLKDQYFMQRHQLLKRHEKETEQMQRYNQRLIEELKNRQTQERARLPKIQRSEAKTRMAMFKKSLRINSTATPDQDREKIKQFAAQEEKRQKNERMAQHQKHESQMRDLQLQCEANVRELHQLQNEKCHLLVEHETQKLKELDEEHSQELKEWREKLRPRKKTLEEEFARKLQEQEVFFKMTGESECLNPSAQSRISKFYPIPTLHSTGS
Excerpt: (a-left panel) MEFs obtained from floxed-Ldb1 mice were generated and infected with recombinant adenovirus harbouring a GFP or Cre recombinase cDNA. […] (right panel) SLK was immunoprecipitated from lysates obtained from Ad-GFP or Ad-Cre infected cells. SLK precipitation efficiency and kinase activity was consistently greater in lysates from Cre-infected cells. In addition, Ldb2 association with the SLK complex was lost in cells lacking Ldb1 (bottom panel). (b) Ldb2 interacts with SLK kinase domain and ATH. […] (c) Ldb1/2 inhibit SLK kinase activity in vitro. Recombinant GST-tagged SLK was prepared and mixed with recombinant His-tagged Ldb2 (lane 2), His-tagged Ldb1 (lane 3) or both (lane 4) and assayed for kinase activity on histone H1. Addition of recombinant Ldb proteins inhibited SLK activity (d) Activation of SLK by scratch wounding is accompanied by a conformational change. Endogenous SLK complexes were immunoprecipitated from unscratched MEFs or 60 min post-wounding and subjected to trypsin digestion. Differential trypsin sensitivity was observed indicative of altered conformation.
Recombinant SLK was prepared by inducing an overnight culture of GST-SLK with IPTG and preparing GST SLK as described above. […]

SLK [2] = biological target: T2, SLK (Mus musculus, UniProt O54988); test: In vitro binding assay, GST-SLK fusions with [35S]-labeled Ldb; parameters: species or system murine; settings: GST pulldown, autoradiography
T2 construct: made in house; host or cells: bacteria (IPTG-induced; pGEX-5X or 4T1)
T2 sequence (O54988 981-1233): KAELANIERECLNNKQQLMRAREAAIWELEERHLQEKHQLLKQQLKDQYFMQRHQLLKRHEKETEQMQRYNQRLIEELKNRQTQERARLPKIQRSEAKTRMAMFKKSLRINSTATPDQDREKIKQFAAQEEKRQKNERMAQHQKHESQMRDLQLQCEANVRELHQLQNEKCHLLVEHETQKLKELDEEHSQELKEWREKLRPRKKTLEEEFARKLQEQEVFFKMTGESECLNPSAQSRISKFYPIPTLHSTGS
Procedure: (§1) GST fusion proteins were generated by induction of bacterial cultures with 1 mM isopropyl-beta-D-thiogalactopyranoside (IPTG, Sigma) for 2 hours. Bacteria were pelleted, resuspended in 1 ml bacterial lysis buffer (20% sucrose, 10% glycerol, 50 mM Tris-HCl pH 8.0, 2 mM MgCl2, 2 mM DTT, 10 μg/ml leupeptin, 10 μg/ml pepstatin, 10 μg/ml aprotinin, 1 mM phenylmethylsulphonylfluoride [PMSF] and 100 μM benzamidine) and sonicated on ice.
(§2) Glutathione sepharose beads (Amersham Pharmacia) were added to the cleared supernatants and bound GST fusions were collected by centrifugation, washed three times with NETN and subjected to binding assays. In vitro translated proteins were generated using the TNT quick coupled in vitro transcription translation kit (Promega) according to the manufacturer's instructions. Translated proteins were incubated with either GST or GST fusions in NETN buffer, washed with NETN and eluted from the beads by boiling in sample buffer. Proteins were fractionated by SDS-PAGE, the gels were stained with Coomassie brilliant blue (Sigma) to visualize the proteins, destained (30% methanol, 10% acetic acid), dried and subjected to autoradiography.

SLK [3] = biological target: T3, SLK (Mus musculus, UniProt O54988); test: as above; parameters: species or system murine; settings: carboxy-terminal deletion lacking the latter two thirds of the ATH domain
T3 construct: made in house; host or cells: bacteria (IPTG-induced; pGEX-5X or 4T1)
Procedure: as §1, §2
T3 sequence (O54988 1-950 isoform O54988-2): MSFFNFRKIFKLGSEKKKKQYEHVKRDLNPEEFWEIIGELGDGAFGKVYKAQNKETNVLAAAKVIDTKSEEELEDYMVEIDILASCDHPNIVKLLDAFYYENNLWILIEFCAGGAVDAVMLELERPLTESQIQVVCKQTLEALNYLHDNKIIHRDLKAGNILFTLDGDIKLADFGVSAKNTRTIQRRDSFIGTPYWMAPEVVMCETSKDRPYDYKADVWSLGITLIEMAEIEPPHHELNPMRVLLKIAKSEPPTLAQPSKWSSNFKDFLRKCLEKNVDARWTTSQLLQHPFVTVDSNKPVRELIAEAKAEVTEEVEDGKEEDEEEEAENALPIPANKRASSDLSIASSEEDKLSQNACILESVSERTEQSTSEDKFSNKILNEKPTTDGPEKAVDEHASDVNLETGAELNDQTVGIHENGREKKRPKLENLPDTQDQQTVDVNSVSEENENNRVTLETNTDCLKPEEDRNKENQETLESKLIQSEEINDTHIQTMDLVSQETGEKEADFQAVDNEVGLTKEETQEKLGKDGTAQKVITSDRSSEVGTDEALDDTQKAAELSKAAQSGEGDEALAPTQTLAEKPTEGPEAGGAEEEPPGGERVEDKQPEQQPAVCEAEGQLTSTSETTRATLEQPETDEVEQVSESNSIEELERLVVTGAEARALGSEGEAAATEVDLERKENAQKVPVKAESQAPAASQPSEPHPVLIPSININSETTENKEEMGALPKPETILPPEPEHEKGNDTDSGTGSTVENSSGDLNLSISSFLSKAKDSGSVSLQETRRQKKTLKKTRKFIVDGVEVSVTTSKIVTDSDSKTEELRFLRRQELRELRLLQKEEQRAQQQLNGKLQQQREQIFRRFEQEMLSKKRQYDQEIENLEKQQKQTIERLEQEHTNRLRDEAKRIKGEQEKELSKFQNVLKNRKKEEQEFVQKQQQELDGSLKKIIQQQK

SLK [4] = test: as above; parameters: species or system murine; settings: deletions lacking the ATH domain, prolonged exposures
Procedure: as §1, §2

B1: Ldb2: LIM domain binding transcription co-factor, paralog of Ldb1; recombinant His-tagged or in vitro translated protein (protein)
chain: MSSTPHDPFYSSPFGPFYRRHTPYMVQPEYRIYEMNKRLQSRTEDSDNLWWDAFATEFFEDDATLTLSFCLEDGPKRYTIGRTLIPRYFSTVFEGGVTDLYYILKHSKESYHNSSITVDCDQCAMVTQHGKPMFTKVCTEGRLILEFTFDDLMRIKTWHFTIRQYRELVPRSILAMHAQDPQVLDQLSKNITRMGLTNFTLNYLRLCVILEPMQELMSRHKTYNLSPRDCLKTCLFQKWQRMVAPPAEPTRQPTTKRRKRKNSTSSTSNSSAGNTTNSAGSKKKTPAASLSLATQVPDVMVVGEPTLMGGEFGDEDERLITRLENTQYDAANGMDDEEDFNNSPALGNNSPWNSKPPATQETKSENAPPQASQ
modifications: left off: large carriers
notes: recombinant His-tagged or in vitro translated protein
binding to α-tubulin (α-tubulin): found to bind α-tubulin in vitro | SLK kinase activity [1]: reduced SLK activity | binding to SLK ATH domain (SLK 950-1202) (SLK [2]): highest affinity | binding to SLK 1-950 (SLK [3]): moderate affinity | binding to GST-SLK-1-551, GST-SLK-1-373 (SLK [4]): weak binding

B2: Ldb1: LIM domain binding transcription co-factor; recombinant His-tagged or in vitro translated protein, SLK binding partner (protein)
chain: MLDRDVGPTPMYPPTYLEPGIGRHTPYGNQTDYRIFELNKRLQNWTEECDNLWWDAFTTEFFEDDAMLTITFCLEDGPKRYTIGRTLIPRYFRSIFEGGATELYYVLKHPKEAFHSNFVSLDCDQGSMVTQHGKPMFTQVCVEGRLYLEFMFDDMMRIKTWHFSIRQHRELIPRSILAMHAQDPQMLDQLSKNITRCGLSNSTLNYLRLCVILEPMQELMSRHKTYSLSPRDCLKTCLFQKWQRMVAPPAEPARQQPSKRRKRKMSGGSTMSSGGGNTNNSNSKKKSPASTFALSSQVPDVMVVGEPTLMGGEFGDEDERLITRLENTQFDAANGIDDEDSFNNSPALGANSPWNSKPPSSQESKSENPTSQASQ
modifications: left off: large carriers
binding to α-tubulin (α-tubulin): not | SLK kinase activity [1]: reduced SLK activity | binding to SLK ATH domain (SLK 950-1202) (SLK [2]): indistinguishable from Ldb2
